Experimental findings from article PMC10820826 (The Journal of Biological Chemistry, 2023) are described below.

Where two headings read alike, the source gives them in different places.

Holding throughout (settings): both partners purified
In experiment [1] the target is T1, Mint1 PTB domain (residues 448-623) (human, UniProt Q02410 448-623).
T1 construct: human Mint1 PTB domain, residues 448-623; pGEX6P-2; source: E. coli Rosetta BL21 (DE3), purified (glutathione-Sepharose, Prescission protease, gel filtration)
T1 sequence (looked up): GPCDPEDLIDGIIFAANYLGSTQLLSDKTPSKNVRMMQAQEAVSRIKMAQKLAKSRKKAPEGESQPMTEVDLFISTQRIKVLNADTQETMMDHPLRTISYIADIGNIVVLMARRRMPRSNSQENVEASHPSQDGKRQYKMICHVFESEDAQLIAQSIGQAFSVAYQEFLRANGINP
The experiment can be described thus: ITC; 25 °C, 50 mM Hepes, 200 mM NaCl, 0.5 mM TCEP, 5% glycerol; 1 mM peptide titrated into 50 μM Mint1 PTB domain; 1:1 binding model.

Experiment [2] addresses T2, Mint1 PTB + APP (750-769) (human, UniProt Q02410 448-623).
T2 construct: human Mint1 PTB domain, residues 448-623, as m35; human amyloid precursor protein residues 750-769, as m36; source: mixed from purified m35 and the synthetic peptide m36
Description: ITC; as a5, competition experiment with the other peptide (APP 750-769 or TJAP1 9-22) present with Mint1 PTB in the cell. On the technique in general: ITC needs no label: the signal is the heat of the interaction.

Experiment [3] deals with T3, Munc18-1 + Sx1a (rat, UniProt P61765 1-594; P32851 1-261).
T3 construct: Munc18-1 (STXBP1), as m1; also called Munc18-1 in the presence of Sx1a; source: mixed from the purified E. coli proteins m1 and m32
T3 sequence (P61765 whole entry, chain 1 of 2): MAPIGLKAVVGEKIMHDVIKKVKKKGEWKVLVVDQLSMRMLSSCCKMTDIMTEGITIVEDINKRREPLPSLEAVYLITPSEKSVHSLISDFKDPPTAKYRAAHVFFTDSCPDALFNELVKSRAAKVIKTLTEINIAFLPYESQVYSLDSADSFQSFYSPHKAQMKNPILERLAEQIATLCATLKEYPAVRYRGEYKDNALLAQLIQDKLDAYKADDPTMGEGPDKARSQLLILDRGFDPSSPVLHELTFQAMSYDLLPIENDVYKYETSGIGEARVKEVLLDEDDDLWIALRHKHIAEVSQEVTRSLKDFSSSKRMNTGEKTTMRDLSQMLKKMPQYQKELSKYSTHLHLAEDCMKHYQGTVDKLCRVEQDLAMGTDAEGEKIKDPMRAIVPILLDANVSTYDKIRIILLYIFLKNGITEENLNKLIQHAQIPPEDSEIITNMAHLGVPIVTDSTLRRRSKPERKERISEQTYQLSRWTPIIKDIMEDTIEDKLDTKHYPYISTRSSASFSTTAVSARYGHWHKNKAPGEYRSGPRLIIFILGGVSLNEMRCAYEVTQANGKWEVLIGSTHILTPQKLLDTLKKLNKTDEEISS
T3 sequence (P32851 1-261, chain 2 of 2): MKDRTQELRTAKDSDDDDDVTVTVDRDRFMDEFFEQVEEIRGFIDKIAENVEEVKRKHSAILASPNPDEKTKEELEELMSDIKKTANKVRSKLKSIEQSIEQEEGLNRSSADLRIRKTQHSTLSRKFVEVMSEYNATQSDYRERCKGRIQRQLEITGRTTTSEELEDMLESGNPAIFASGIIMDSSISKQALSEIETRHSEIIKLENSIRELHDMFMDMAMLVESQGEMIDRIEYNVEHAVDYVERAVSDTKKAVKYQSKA

Experiment [4] concerns the target T4, Munc18-1-His (rat, UniProt P61765 1-594).
T4 construct: Munc18-1 (STXBP1); also called Munc18a; STXBP1; source: E. coli Rosetta BL21 (DE3), purified to homogeneity as described by Hu et al

Experiment [5] addresses T4, Munc18-1-His. This is another data set of the same source.
For experiment [6], the target named is T4, Munc18-1-His. The source holds these as a separate data set.
Experiment [7] addresses T3, Munc18-1 + Sx1a. The experiment can be described thus: pull-down; GST-Mint1 MID as bait, Munc18-1 in the presence of Sx1a; Coomassie-stained gel.
Experiment [8] addresses T5, Mint1 PTB + TJAP1 (9-22) (human, UniProt Q02410 448-623).
T5 construct: human Mint1 PTB domain, residues 448-623, as m35; human tight junction-associated protein 1 residues 9-22, as m37; source: mixed from purified m35 and the synthetic peptide m37
The experiment can be described thus: ITC; as a5, competition experiment with the other peptide (APP 750-769 or TJAP1 9-22) present with Mint1 PTB in the cell.

T4 sequence (P61765 whole entry): as the sequence (P61765 whole entry, chain 1 of 2) above

B1: TJAP1 (9-22) peptide (peptide)
peptide: KPYRKAPPEHRELR
notes: human tight junction-associated protein 1 residues 9-22; also called TJAP1 peptide; PILT; source: synthetic peptide (solid phase synthesis in-house, reverse-phase HPLC)
By stoichiometry N is commonly meant a count of units in the complex or per binding partner. As for B1, in experiment [1], the Kd came out at 20.9 µM, the dH was -8.9 kcal/mol and the “stoichiometry N” value came to 1. In addition, in experiment [2], the Kd is 29.4 µM, the dH was -7.1 kcal/mol and the “stoichiometry N” value was found to be 1.

B2: Mint1 (261-282) synthetic peptide (peptide)
peptide: MDSYEQEEDIDQIVAEVKQSMS
notes: also called Mint1_1; Mint1 AHM peptide; source: synthetic peptide, bought: Genscript
B2: the dH in experiment [3] is -8.9 kcal/mol; in experiment [4], -8.8 kcal/mol; in experiment [5], -7.9 kcal/mol. The results for the “stoichiometry N” value in experiment [3], in experiment [4] and in experiment [5] were 1, 0.8 and 1, respectively.

B3: Mint1_7 peptide (261-280) (peptide)
peptide: MDSYEQEEDIDQIVAEVKQS
notes: source: synthetic peptide, bought: Genscript
Consider B3, for which, in experiment [4], the Kd is 19.1 µM, the dH is -1.78 kcal/mol and the “stoichiometry N” value came out at 1.

B4: Mint1_1c peptide (266-282) (peptide)
peptide: QEEDIDQIVAEVKQSMS
notes: as for B3
For B4, in experiment [4], the Kd is 23.1 µM, the dH was -1.2 kcal/mol and the “stoichiometry N” value is 1.

B5: GST-Mint1 MID (residues 222-314) (domain or fragment)
chain: EAAAYRQEALGARLHHYDERSDGESDSPEKEAEFAPYPRMDSYEQEEDIDQIVAEVKQSMSSQSLDKAAEDMPEAEQDLERPPTPAGGRPDSP
notes: pGEX4T-2, codon optimised; The methods call 226-314 the MID; also called GST-Mint1 (222-314); source: E. coli Rosetta BL21 (DE3), purified (glutathione-Sepharose, gel filtration)
With B5, the binding result in experiment [6] is “binds”.

B6: Mint1_6 peptide (267-282) (peptide)
peptide: EEDIDQIVAEVKQSMS
notes: as for B3
As to B6, in experiment [4], the Kd was 4 µM, the dH was -1.29 kcal/mol and the “stoichiometry N” value stood at 1.2.

B7: Mint1_5 peptide (265-282) (peptide)
peptide: EQEEDIDQIVAEVKQSMS
notes: as for B3
As to B7, in experiment [4], the Kd came out at 5.6 µM, the dH is -3.48 kcal/mol and the “stoichiometry N” value came out at 1.3.

B8: Mint1_3 peptide (257-286 phosphomimic) (peptide)
peptide: PYPRMDEEEQEEDIDQIVAEVKQEMEEQEL
notes: human Mint1 residues 257-286 with phosphomimetic Glu; source: synthetic peptide, bought: Genscript
On to B8, for which, in experiment [4], the Kd stood at 14 µM, the dH was -6.5 kcal/mol and the “stoichiometry N” value is 1.1.

B9: GST-Mint1 (226-314) (MID) (domain or fragment, human, UniProt Q02410 226-314, looked up)
chain: YRQEALGARLHHYDERSDGESDSPEKEAEFAPYPRMDSYEQEEDIDQIVAEVKQSMSSQSLDKAAEDMPEAEQDLERPPTPAGGRPDSP
notes: human Mint1 (X11, APBA1) residues 226-314, the MID by the methods; it could also be 222-314; also called GST-Mint1 MID; source: E. coli Rosetta BL21 (DE3), purified (glutathione-Sepharose, Superdex 75)
Turning to B9, the binding result in experiment [6] and in experiment [7] was “binds” each time.

B10: Mint1_4 peptide (263-282) (peptide)
peptide: SYEQEEDIDQIVAEVKQSMS
notes: as for B3
In the case of B10, in experiment [4], the Kd is 12.9 µM, the dH was -2.3 kcal/mol and the “stoichiometry N” value amounted to 1.3.

B11: APP (750-769) peptide (peptide)
peptide: SKMQQNGYENPTYKFFEQMQ
notes: human amyloid precursor protein residues 750-769; also called APP NPxY peptide; source: synthetic peptide (solid phase synthesis in-house, reverse-phase HPLC)
Regarding B11, in experiment [1], the Kd stood at 0.31 µM, the dH was -15.6 kcal/mol and the “stoichiometry N” value worked out at 1. In experiment [8], the Kd stood at 0.58 µM, the dH was -11.8 kcal/mol and the “stoichiometry N” value stood at 1.

B12: Mint1_2 peptide (257-286) (peptide)
peptide: PYPRMDSYEQEEDIDQIVAEVKQSMSSQSL
notes: human Mint1 residues 257-286; source: synthetic peptide, bought: Genscript
For B12, in experiment [4], the Kd was found to be 26 µM, the dH was -4.21 kcal/mol and the “stoichiometry N” value was determined as 1.3.
